Where a chain is given by its changes, count along the chain named. Values belong to the binder of their own block, whether it stands above or below them.
Tests used:
[1] = molecular target: T1, human FcγRIIb extracellular domain with C-terminal His tag (human, UniProt P31994 43-217); assay: SPR, antibody captured, FcgR analyte
T1 construct: extracellular domain; also called FcgRIIb
T1 sequence (looked up): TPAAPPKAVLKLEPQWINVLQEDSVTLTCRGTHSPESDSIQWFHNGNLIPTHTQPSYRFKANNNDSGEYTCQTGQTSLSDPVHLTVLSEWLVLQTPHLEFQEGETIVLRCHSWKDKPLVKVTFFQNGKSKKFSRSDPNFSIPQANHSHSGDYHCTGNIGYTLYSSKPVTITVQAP

[2] = molecular target: T2, human FcγRIa extracellular domain with C-terminal His tag (human, UniProt P12314 16-292); assay: SPR, antibody captured, FcgR analyte
T2 construct: Whole entry named; also called FcgRIa

[3] = molecular target: T3, human FcγRIIa R type extracellular domain with C-terminal His tag (human, UniProt P12318 34-217); assay: SPR, antibody captured, FcgR analyte
T3 construct: extracellular domain; also called FcgRIIaR
T3 sequence (looked up): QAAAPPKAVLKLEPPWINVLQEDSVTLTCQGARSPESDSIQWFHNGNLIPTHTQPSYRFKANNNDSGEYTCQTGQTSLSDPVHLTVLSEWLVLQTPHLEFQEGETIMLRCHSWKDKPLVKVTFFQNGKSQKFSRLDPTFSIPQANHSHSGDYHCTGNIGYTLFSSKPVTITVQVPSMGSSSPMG

[4] = molecular target: T1, human FcγRIIb extracellular domain with …; assay: SPR, KD of IL6R-G1d/IL6R-L divided by KD of variant
[5] = molecular target: T4, human FcγRIIa H type extracellular domain with C-terminal His tag (human, UniProt P12318 34-217); assay: as above
T4 construct: extracellular domain; also called FcgRIIaH
T4 sequence (looked up): T3 sequence (looked up) with R134H

[6] = molecular target: T2, human FcγRIa extracellular domain with …; assay: as above
[7] = molecular target: T5, human FcγRIIIa V type extracellular domain with C-terminal His tag (human, UniProt P08637 17-208); assay: as above
T5 construct: extracellular domain; also called FcgRIIIaV

[8] = molecular target: T3, human FcγRIIa R type extracellular …; assay: as above

T2 sequence (P12314 16-292): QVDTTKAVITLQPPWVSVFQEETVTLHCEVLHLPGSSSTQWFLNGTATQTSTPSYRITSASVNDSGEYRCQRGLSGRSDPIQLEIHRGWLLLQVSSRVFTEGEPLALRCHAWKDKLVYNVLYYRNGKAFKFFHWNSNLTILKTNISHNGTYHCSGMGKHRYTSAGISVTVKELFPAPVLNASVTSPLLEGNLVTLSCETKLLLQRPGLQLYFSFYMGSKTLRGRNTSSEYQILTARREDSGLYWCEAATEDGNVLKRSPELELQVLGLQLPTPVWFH
T5 sequence (P08637 17-208 F176V): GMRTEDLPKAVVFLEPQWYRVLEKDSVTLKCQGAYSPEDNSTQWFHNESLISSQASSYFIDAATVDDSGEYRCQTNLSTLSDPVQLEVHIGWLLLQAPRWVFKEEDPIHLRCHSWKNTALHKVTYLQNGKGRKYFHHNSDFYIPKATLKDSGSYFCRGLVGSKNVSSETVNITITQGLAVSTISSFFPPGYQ

- Kd [1]: 210 nM
- Kd [2]: 11 nM
- Kd [3]: 2.8 µM
- Relative FcgRIIb-binding Activity [4]: 10
- Relative FcgRIIaH-binding Activity [5]: 0.021
- Relative FcgRIa-binding Activity [6]: 0.029
- Relative FcgRIIIaV-binding Activity [7]: 0.009
- Relative FcgRIIaR-binding Activity [8]: 0.39
B1: IL6R-P555/IL6R-L (antibody, human IgG1, kappa)
heavy: QVQLQESGPGLVKPSETLSLTCAVSGHSISHDHAWSWVRQPPGEGLEWIGFISYSGITNYNPSLQGRVTISRDNSKNTLYLQMNSLRAEDTAVYYCARSLARTTAMDYWGEGTLVTVSSASTKGPSVFPLAPSSKSTSGGTAALGCLVKDYFPEPVTVSWNSGALTSGVHTFPAVLQSSGLYSLSSVVTVPSSSLGTQTYICNVNHKPSNTKVDKKVEPKSCDKTHTCPPCPAPELLGDDSVFLFPPKPKDTLMISRTPEVTCVVVDVSDEDGEVKFNWYVDGVEVHNAKTKPREEQYNSTYRVVSVLTVLHQDWLNGKEYKCKVSNKALPAPIEKTISKAKGQPREPQVYTLPPSRDELTKNQVSLTCLVKGFYPSDIAVEWESNGQPENNYKTTPPVLDSDGSFFLYSKLTVDKSRWQQGNVFSCSVMHEALHNHYTQKSLSLSP
light: not shown

- Kd [1]: 3100 nM
- Kd [2]: 5 nM
- Kd [3]: 26 µM
- Relative FcgRIIb-binding Activity [4]: 0.7
- Relative FcgRIIaH-binding Activity [5]: 0.014
- Relative FcgRIa-binding Activity [6]: 0.064
- Relative FcgRIIIaV-binding Activity [7]: 0.007
- Relative FcgRIIaR-binding Activity [8]: 0.04
B2: IL6R-P745/IL6R-L (antibody, human IgG1, kappa)
heavy: B1 heavy with D239G, D270H, G273P, S300A, K324E
light: not shown

- Kd [1]: 2700 nM
- Kd [2]: 71 nM
- Kd [3]: 34 µM
- Relative FcgRIIb-binding Activity [4]: 0.8
- Relative FcgRIIaH-binding Activity [5]: 0.015
- Relative FcgRIa-binding Activity [6]: 0.005
- Relative FcgRIIIaV-binding Activity [7]: 0.007
- Relative FcgRIIaR-binding Activity [8]: 0.03
B3: IL6R-P727/IL6R-L (antibody, human IgG1, kappa)
heavy: B1 heavy with D239Q, F243M, D270P, G273P, Y298E, A332H
light: not shown

- Kd [1]: 4500 nM
- Kd [2]: 200 nM
- Kd [3]: 13 µM
- Relative FcgRIIb-binding Activity [4]: 0.5
- Relative FcgRIIaH-binding Activity [5]: 0.014
- Relative FcgRIa-binding Activity [6]: 0.002
- Relative FcgRIIIaV-binding Activity [7]: 0.007
- Relative FcgRIIaR-binding Activity [8]: 0.08
B4: IL6R-P733/IL6R-L (antibody, human IgG1, kappa)
heavy: B1 heavy with L237F, D239Q, F243M, D270P, G273P, Y298E, S326H
light: not shown

- Kd [1]: 6200 nM
- Kd [2]: 100 nM
- Kd [3]: 39 µM
- Relative FcgRIIb-binding Activity [4]: 0.3
- Relative FcgRIIaH-binding Activity [5]: 0.01
- Relative FcgRIa-binding Activity [6]: 0.003
- Relative FcgRIIIaV-binding Activity [7]: 0.005
- Relative FcgRIIaR-binding Activity [8]: 0.03
B5: IL6R-P748/IL6R-L (antibody, human IgG1, kappa)
heavy: B1 heavy with D239Q, F243M, D270P, G273P, Y298E, K324A, A332H
light: not shown

- Kd [1]: 3000 nM
- Kd [2]: 7.4 nM
- Kd [3]: 18 µM
- Relative FcgRIIb-binding Activity [4]: 0.7
- Relative FcgRIIaH-binding Activity [5]: 0.01
- Relative FcgRIa-binding Activity [6]: 0.043
- Relative FcgRIIIaV-binding Activity [7]: 0.005
- Relative FcgRIIaR-binding Activity [8]: 0.06
B6: IL6R-P746/IL6R-L (antibody, human IgG1, kappa)
heavy: B1 heavy with L237F, D239Q, F243M, D270H, G273P, Y298E, K324A
light: not shown

- Kd [1]: 3600 nM
- Kd [2]: 18 nM
- Kd [3]: 20 µM
- Relative FcgRIIb-binding Activity [4]: 0.6
- Relative FcgRIIaH-binding Activity [5]: 0.013
- Relative FcgRIa-binding Activity [6]: 0.018
- Relative FcgRIIIaV-binding Activity [7]: 0.006
- Relative FcgRIIaR-binding Activity [8]: 0.06
B7: IL6R-P743/IL6R-L (antibody, human IgG1, kappa)
heavy: B1 heavy with D239G, D270H, G273P, A329G, A332S, P333S
light: not shown

- Kd [1]: 2700 nM
- Kd [2]: 90 nM
- Kd [3]: 27 µM
- Relative FcgRIIb-binding Activity [4]: 0.8
- Relative FcgRIIaH-binding Activity [5]: 0.012
- Relative FcgRIa-binding Activity [6]: 0.004
- Relative FcgRIIIaV-binding Activity [7]: 0.006
- Relative FcgRIIaR-binding Activity [8]: 0.04
B8: IL6R-P747/IL6R-L (antibody, human IgG1, kappa)
heavy: B1 heavy with L237F, D239Q, F243M, D270H, G273P, Y298E, K324E
light: not shown

- Kd [1]: 4000 nM
- Kd [2]: 52 nM
- Kd [3]: 22 µM
- Relative FcgRIIb-binding Activity [4]: 0.5
- Relative FcgRIIaH-binding Activity [5]: 0.009
- Relative FcgRIa-binding Activity [6]: 0.006
- Relative FcgRIIIaV-binding Activity [7]: 0.004
- Relative FcgRIIaR-binding Activity [8]: 0.05
B9: IL6R-P749/IL6R-L (antibody, human IgG1, kappa)
heavy: B1 heavy with D239Q, F243M, D270P, G273P, Y298E, K324E, A332H
light: not shown

- Kd [1]: 8500 nM
- Kd [2]: 120 nM
- Relative FcgRIIb-binding Activity [4]: 0.2
- Relative FcgRIIaH-binding Activity [5]: 0.006
- Relative FcgRIa-binding Activity [6]: 0.003
- Relative FcgRIIIaV-binding Activity [7]: 0.01
- Relative FcgRIIaR-binding Activity [8]: 0.02
B10: IL6R-P786/IL6R-L (antibody, human IgG1, kappa)
heavy: B1 heavy with D270H, G273P, S300A, A329G, A332S, P333S
light: not shown

- Kd [1]: 2300 nM
- Kd [2]: 130 nM
- Kd [3]: 28 µM
- Relative FcgRIIb-binding Activity [4]: 0.9
- Relative FcgRIIaH-binding Activity [5]: 0.01
- Relative FcgRIa-binding Activity [6]: 0.002
- Relative FcgRIIIaV-binding Activity [7]: 0.004
- Relative FcgRIIaR-binding Activity [8]: 0.04
B11: IL6R-P691/IL6R-L (antibody, human IgG1, kappa)
heavy: B1 heavy with L237F, D239Q, F243M, D270H, G273P, Y298E
light: not shown

- Kd [1]: 130 nM
- Kd [2]: 4.2 nM
- Kd [3]: 2 µM
- Relative FcgRIIb-binding Activity [4]: 16.2
- Relative FcgRIIaH-binding Activity [5]: 0.022
- Relative FcgRIa-binding Activity [6]: 0.076
- Relative FcgRIIIaV-binding Activity [7]: 0.007
- Relative FcgRIIaR-binding Activity [8]: 0.55
B12: IL6R-P562/IL6R-L (antibody, human IgG1, kappa)
heavy: B1 heavy with E235D, D270E
light: not shown

- Kd [1]: 4600 nM
- Kd [2]: 56 nM
- Relative FcgRIIb-binding Activity [4]: 0.5
- Relative FcgRIIaH-binding Activity [5]: 0.007
- Relative FcgRIa-binding Activity [6]: 0.006
- Relative FcgRIIIaV-binding Activity [7]: 0.01
- Relative FcgRIIaR-binding Activity [8]: 0.02
B13: IL6R-P787/IL6R-L (antibody, human IgG1, kappa)
heavy: B1 heavy with E235D, D270H, G273P, S300A, A329G, A332S, P333S
light: not shown

- Kd [1]: 4300 nM
- Kd [2]: 46 nM
- Kd [3]: 37 µM
- Relative FcgRIIb-binding Activity [4]: 0.5
- Relative FcgRIIaH-binding Activity [5]: 0.016
- Relative FcgRIa-binding Activity [6]: 0.007
- Relative FcgRIIIaV-binding Activity [7]: 0.007
- Relative FcgRIIaR-binding Activity [8]: 0.03
B14: IL6R-P737/IL6R-L (antibody, human IgG1, kappa)
heavy: B1 heavy with D239Q, F243M, D270P, G273P, Y298E, S326H, A332H
light: not shown

- Kd [1]: 3000 nM
- Kd [2]: 220 nM
- Kd [3]: 16 µM
- Relative FcgRIIb-binding Activity [4]: 0.7
- Relative FcgRIIaH-binding Activity [5]: 0.013
- Relative FcgRIa-binding Activity [6]: 0.001
- Relative FcgRIIIaV-binding Activity [7]: 0.006
- Relative FcgRIIaR-binding Activity [8]: 0.07
B15: IL6R-P729/IL6R-L (antibody, human IgG1, kappa)
heavy: B1 heavy with L237F, D239Q, F243M, D270P, G273P, Y298E
light: not shown

- Kd [1]: 3200 nM
- Kd [2]: 10 nM
- Kd [3]: 18 µM
- Relative FcgRIIb-binding Activity [4]: 0.7
- Relative FcgRIIaH-binding Activity [5]: 0.013
- Relative FcgRIa-binding Activity [6]: 0.032
- Relative FcgRIIIaV-binding Activity [7]: 0.007
- Relative FcgRIIaR-binding Activity [8]: 0.06
B16: IL6R-P744/IL6R-L (antibody, human IgG1, kappa)
heavy: B1 heavy with D239G, D270H, G273P, S300A, K324A
light: not shown

- Kd [1]: 38 nM
- Kd [2]: 1.4 nM
- Kd [3]: 1.6 µM
- Relative FcgRIIb-binding Activity [4]: 55.3
- Relative FcgRIIaH-binding Activity [5]: 0.034
- Relative FcgRIa-binding Activity [6]: 0.229
- Relative FcgRIIIaV-binding Activity [7]: 0.011
- Relative FcgRIIaR-binding Activity [8]: 0.69
B17: IL6R-P588/IL6R-L (antibody, human IgG1, kappa)
heavy: B1 heavy with D239G, V266I, S269A, D270E
light: not shown

- Kd [1]: 180 nM
- Kd [2]: 3.7 nM
- Kd [3]: 2.4 µM
- Relative FcgRIIb-binding Activity [4]: 11.7
- Relative FcgRIIaH-binding Activity [5]: 0.019
- Relative FcgRIa-binding Activity [6]: 0.086
- Relative FcgRIIIaV-binding Activity [7]: 0.007
- Relative FcgRIIaR-binding Activity [8]: 0.46
B18: IL6R-P556/IL6R-L (antibody, human IgG1, kappa)
heavy: B1 heavy with E235D
light: not shown

- Kd [1]: 140 nM
- Kd [2]: 9.1 nM
- Kd [3]: 2.4 µM
- Relative FcgRIIb-binding Activity [4]: 15
- Relative FcgRIIaH-binding Activity [5]: 0.021
- Relative FcgRIa-binding Activity [6]: 0.035
- Relative FcgRIIIaV-binding Activity [7]: 0.009
- Relative FcgRIIaR-binding Activity [8]: 0.46
B19: IL6R-P559/IL6R-L (antibody, human IgG1, kappa)
heavy: B1 heavy with D270E
light: not shown

From patent US20220411483A1 (Chugai, published 2022)
